Test [1] has as its target T1, recombinant cynomolgus TfR-1 (cynomolgus, UniProt H9EXL1 89-760).
T1 chain: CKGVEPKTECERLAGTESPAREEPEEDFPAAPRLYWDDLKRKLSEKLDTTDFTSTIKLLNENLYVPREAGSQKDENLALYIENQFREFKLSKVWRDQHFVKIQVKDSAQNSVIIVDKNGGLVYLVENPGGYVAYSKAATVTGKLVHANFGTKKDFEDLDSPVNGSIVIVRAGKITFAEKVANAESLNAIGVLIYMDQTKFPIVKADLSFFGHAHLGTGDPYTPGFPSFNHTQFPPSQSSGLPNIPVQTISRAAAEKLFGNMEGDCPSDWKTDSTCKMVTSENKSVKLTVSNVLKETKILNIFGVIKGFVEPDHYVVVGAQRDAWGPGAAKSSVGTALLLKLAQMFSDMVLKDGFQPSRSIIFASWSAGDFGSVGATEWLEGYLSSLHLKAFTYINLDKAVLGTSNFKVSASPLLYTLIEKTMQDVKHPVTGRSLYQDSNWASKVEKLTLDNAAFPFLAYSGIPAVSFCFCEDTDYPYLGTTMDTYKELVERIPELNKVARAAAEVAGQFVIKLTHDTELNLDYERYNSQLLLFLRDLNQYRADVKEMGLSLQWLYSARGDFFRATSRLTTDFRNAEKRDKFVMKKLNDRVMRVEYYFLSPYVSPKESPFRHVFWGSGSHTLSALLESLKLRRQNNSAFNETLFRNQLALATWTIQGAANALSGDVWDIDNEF
Description: ELISA.

Test [2] deals with recombinant human TfR-1 (human, UniProt P02786 89-760). Description: ELISA. Background: ELISA stands for enzyme-linked immunosorbent assay.

B1: R2D4 (Fc fusion)
chain: ARVDQTPQTATKETGESLTINCVLRDSNCALSSTYWYRKKSGSTNEENISKGGRKYVETVESGSKSFSLKINDLTVEDSGTYRCNVVGTWCMSWRDVSGDGTVVTVNA
Consider B1, for which the figures for the EC50 in test [1] and in test [2] were 3 nM and 4.1 nM, respectively.

Usually EC50 stands for the concentration giving half of the maximal effect.

The record behind these values is patent US20250122298A1 (published 2025).
